Laboratory results: US20140363427A1 (CRUCELL HOLLAND B V, published 2014)

Assays:
[1] = biological target: native RSV F protein from the RSV A2 strain (Respiratory Syncytial Virus strain A2, UniProt P03420 26-574); test: cell-based or functional assay
[2] = biological target: T1, recombinant RSV F protein, strain A2, extracellular domain (Respiratory Syncytial Virus strain A2, UniProt P03420 26-524); test: ELISA, purified Fab, estimated EC50
T1 construct: also called RSV F1 lysate (recombinant); RSV F lysate

B1: Fab 14G3 (Fab, V domains shown)
VH: QVQLQESGPGLVKPSQTLSLTCTVSGASISSDNHYWSWIRQPPGKGLEWIASIYYTGGTNYNPSLKSRLALSIDTSGDQFSLKLSSVTAADTAVYYCVRGLFFITARPYWYFDLWGRGTLVAVSS
VL: DVVMTQTPLSLSVTPGEPASISCRSSQSLLDSDDGNTYLDWYLQKPGQSPQLLIYTLSYRASGVPDRFSGSGSGTDFTLKISRVEADDVGIYYCMQRMEFPFTFGQGTRLDIKR
[1]
  ED50, plaque reduction, RSV A2: 3.4 nM
  ED50, plaque reduction, RSV A2 (mass concentration): 0.172 µg/mL
[2]
  EC50: 8.2 nM
